# Data published in publication PMC4383751 (Protein & Cell, 2015).
# B1: PKM2^Y105E (phosphorylation mimic of Y105) (enzyme)
# chain: not shown
# B2: PKM2^K305Q (acetylation mimic of K305) (enzyme)
# chain: not shown
# B3: PKM2^K422R (a patient-derived mutation) (enzyme)
# chain: not shown
# B4: PKM2^R399E (a dimeric mutant) (enzyme)
# chain: not shown
# Legend:
# [1] = target: the molecule itself; test: crystal structure; crystals grown at 18°C by hanging-drop vapor diffusion, protein 15-20 mg/mL, in the absence of FBP (malonate for K305Q, L-proline for Y105E)
# [2] = target: the molecule itself; test: cell-based or functional assay
# [3] = target: the molecule itself; test: SEC; gel filtration on Superdex 200 10/300 GL, in the presence of FBP; similar protein concentrations and conditions for all proteins
Protein,stoichiometry N [1],normalized kcat/Km of pyruvate kinase activity (PKM2^WT as standard) in the presence of FBP [2],stoichiometry N [3]
B1,4,–,–
B2,4,0.2 relative to kcat/Km of PKM2^WT,2
B3,–,–,4
B4,4,–,–
